Test [1] deals with PD-L1 on PD-L1 target cells (Homo sapiens (Human)) (UniProt Q9NZQ7). As to the kind of experiment: cell-based or functional assay.
In test [2] the target is recombinant human TGF-β (human) (UniProt P01137). As to the kind of experiment: cell-based or functional assay.
The target in the next test is mouse PD-L1 protein (mouse, UniProt Q9EP73 19-239, limits assumed). As to the kind of experiment: ELISA, coated mouse PD-L1. Here is the method:
(§1) ELISA testing was carried out to evaluate the binding of chimeric antibodies to human PD-L1, mouse PD-L1, rat PD-L1, and cynomolgus PD-L1, respectively.
(§2) Briefly, microtiter plates were coated with human, mouse, rat and cynomolgus PD-L1 proteins at 0.5 µg/ml in PBS, 100 µl/well at 4° C. overnight, then blocked with 150 µl/well of 1% BSA. Three-fold dilutions of chimeric antibodies starting from 10 µg/ml were added to each well and incubated for 1 hour at 37° C. The plates were washed with PBS/Tween and then incubate with mouse-anti-human IgG Fab antibody conjugated with Horse Radish Peroxidase (HRP) for 30 mins at 37° C. After washing, the plates were developed with TMB substrate and analyzed by spectrophotometer at OD 450 nm.
A general note: ELISA stands for enzyme-linked immunosorbent assay.

For a further test, the target named is rat PD-L1 protein (rat, UniProt D4AE25 19-239). As to the kind of experiment: ELISA, coated rat PD-L1. On the procedure: as §1, §2
Sequence of rat PD-L1 protein (D4AE25 entry or part of it limits assumed): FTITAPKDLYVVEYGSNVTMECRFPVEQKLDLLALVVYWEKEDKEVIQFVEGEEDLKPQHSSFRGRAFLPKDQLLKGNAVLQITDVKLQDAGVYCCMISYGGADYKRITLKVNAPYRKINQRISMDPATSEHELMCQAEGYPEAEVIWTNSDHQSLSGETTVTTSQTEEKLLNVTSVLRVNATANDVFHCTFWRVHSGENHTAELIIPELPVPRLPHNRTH

Sequence of mouse PD-L1 protein (Q9EP73 19-239 limits assumed): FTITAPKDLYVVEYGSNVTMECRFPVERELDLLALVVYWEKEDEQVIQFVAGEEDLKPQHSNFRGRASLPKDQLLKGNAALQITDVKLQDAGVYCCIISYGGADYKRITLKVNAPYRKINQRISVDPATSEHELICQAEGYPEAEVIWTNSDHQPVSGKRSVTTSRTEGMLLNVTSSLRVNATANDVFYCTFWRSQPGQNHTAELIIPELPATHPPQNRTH
Sequence of PD-L1 on PD-L1 target cells (Homo sapiens (Human)) (Q9NZQ7 19-290 limits assumed): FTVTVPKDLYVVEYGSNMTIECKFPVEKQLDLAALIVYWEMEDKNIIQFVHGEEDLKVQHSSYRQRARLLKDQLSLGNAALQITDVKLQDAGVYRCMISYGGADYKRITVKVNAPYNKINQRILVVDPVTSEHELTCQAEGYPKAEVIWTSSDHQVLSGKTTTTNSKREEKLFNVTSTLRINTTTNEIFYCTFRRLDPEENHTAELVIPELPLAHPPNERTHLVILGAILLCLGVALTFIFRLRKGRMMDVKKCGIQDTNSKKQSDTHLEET
Sequence of recombinant human TGF-β (human) (P01137 279-390 limits assumed): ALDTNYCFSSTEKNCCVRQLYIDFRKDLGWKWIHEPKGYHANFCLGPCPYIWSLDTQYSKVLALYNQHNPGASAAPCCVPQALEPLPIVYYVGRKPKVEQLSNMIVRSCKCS

Turning to M7824 (bintrafusp alfa), the NFAT-RE-mediated luminescence, PD1 effector cells co-cultured with PD-L1 target cells in test [1] was found to be 0.85 nM. Besides, in test [2], the TGF-β SMAD luciferase reporter assay in transfected 293 cells was 0.0669 nM.

B1: 67F3G7 chimeric mAb (antibody, V domains shown)
VH: QVKLLQSGAALVKPGASVKMSCKASGYIFTDFWVSWVKQSHEKSLEWIGEIYPNSGVSRYNEKFKGRATMTVDKSTSTAYLELSRLTSEDSAIYYCTKYFGYTYWFGYWGQGTLVTVSS
VL: DTVLTQSPALAVSLGQRITISCRASKSVSTYMHWYQQRSGLQPKLLIYSASHLESGVPSRFSGSGSGTDFTLTIDPVEADDIANYYCQQSNELPVTFGSGTKLEIK
notes: also called 67F3G7-chimera
As to B1, the binding result in the test with mouse PD-L1 protein and in the test with rat PD-L1 protein was “no binding (tested: starting from 10 µg/ml)” in each case.

B2: 89C10H8 chimeric mAb (antibody, V domains shown)
VH: EVQLVESGGGLVQPGRSLTLSCVASGFTFSNYWMTWIRQAPGKGLEWVASITNTGSSTFYPDSVKGRFTISRDNTRSTLFLQINSLRSEDTATYYCTRDTTIAPFDYWGQGVMVTVSS
VL: DIQMTQSPSFLSASVGDRVTITCKASQNLNEYLNWYQQKLGEAPKRLIYKTNTLQAGIPSRFSGSGSGIDYTLTISSLQPEDVATYFCSQYNSGNTFGAGTKLELK
notes: also called 89C10H8-chimera
As for B2, the binding result in the test with mouse PD-L1 protein and in the test with rat PD-L1 protein was “no binding (tested: starting from 10 µg/ml)” in each case.

B3: 47C6A3 chimeric mAb (antibody, V domains shown)
VH: DVQLQESGPGLVKPSQSLSLTCTVTGYSITSDYAWNWIRQFPGNKLEWMGYIIYSGSTSYNPSLKSRISITRDTSKNQFFLQLNSVTTEDTATYYCARSTMIATNWFAYWGQGTLVTVSA
VL: DIVMTQSHKFMSTSVVDRVSITCKASQDVSLAVAWYQQKPGQSPKLLIYWASTRHTGVPDRFTGSGSGTDFALTISSVQAEDLALYYCQQHYITPWTFGGGTKLEIK
notes: also called 47C6A3-chimera
With B3, the binding result with mouse PD-L1 protein and in the test with rat PD-L1 protein was “no binding (tested: starting from 10 µg/ml)” each time.

For the origin of these results see US11028174 (LEPU BIOPHARMA, dated 2021).
